{"source": "paper PMC5869385", "target": "Torpedo muscle-type α1_(2)β1γδ nicotinic acetylcholine receptor (Torpedo marmorata (endogenous in electric organ)) (UniProt P02711)", "experiment": "radioligand binding"}
{"substance": "α-cobratoxin from Naja kaouthia (from UniProt P01391 1-71) (natural protein)", "values": [{"measurement": "Ki", "value": 0.397, "unit": "nM"}]}
